From IntAct's records for PubMed 18052611

B1: Protein matrimony (Drosophila melanogaster (Fruit fly)), Q23973 (parent)
chain: MENSRTPTNKTKITLNRTPTLKERRWNTLKVNTSNVRCSTPIFGNFRSPNLSPIENMGTKGKSPVSPMRFATFKKVPTKVHPKQQQQQQHQHCHRTQLKPPPFVLPKPQEEIIEPEREIKSCSSPDTCSDDSNMETSLALESRRRSIKASNHSYVVNHAANVEQILMHMGLENYVTNFEEAHIDLVELASLERADLVKIGLNTDEDCNRIMDVLHTL
partner: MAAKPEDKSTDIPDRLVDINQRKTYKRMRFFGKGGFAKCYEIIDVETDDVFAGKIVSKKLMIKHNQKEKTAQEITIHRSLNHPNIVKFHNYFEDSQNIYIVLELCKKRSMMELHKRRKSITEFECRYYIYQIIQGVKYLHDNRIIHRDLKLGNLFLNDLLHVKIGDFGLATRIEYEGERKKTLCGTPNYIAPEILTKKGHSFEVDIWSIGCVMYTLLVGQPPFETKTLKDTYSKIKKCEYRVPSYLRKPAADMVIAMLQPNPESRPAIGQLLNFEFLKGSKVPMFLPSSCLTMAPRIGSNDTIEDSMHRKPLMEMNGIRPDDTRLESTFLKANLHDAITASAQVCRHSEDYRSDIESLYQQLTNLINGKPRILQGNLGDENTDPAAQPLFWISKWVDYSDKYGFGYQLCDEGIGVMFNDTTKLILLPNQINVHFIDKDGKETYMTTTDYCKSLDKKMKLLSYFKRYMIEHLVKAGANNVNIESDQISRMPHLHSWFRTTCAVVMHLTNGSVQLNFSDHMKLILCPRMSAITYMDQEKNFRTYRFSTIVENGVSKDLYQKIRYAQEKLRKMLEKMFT

Variants of: B1
Settings: with polo_drome polo

Row | Variant | effect of a mutation on the interaction
1 | MENSRTPTNKTKITLNRTPTLKERRWNTLKVNTSNVRCSAPIFGNFRSPNLSPIENMGTKGKSPVSPMRFATFKKVPTKVHPKQQQQQQHQHCHRTQLKPPPFVLPKPQEEIIEPEREIKSCSSPDTCSDDSNMETSLALESRRRSIKASNHSYVVNHAANVEQILMHMGLENYVTNFEEAHIDLVELASLERADLVKIGLNTDEDCNRIMDVLHTL [T40A] | disrupting interaction
